Data reported in patent US20180037641A1.

Target: P301S human tau, T34 isoform (1N4R), of P301S tg mice (line PS19) (human) (UniProt P10636)
Assay: cell-based or functional assay

Chain of P301S human tau, T34 isoform (1N4R), of P301S tg mice (line PS19) (human) (P10636 other isoform, or with tags, fused parts or gaps P301S P301S P301S P301S): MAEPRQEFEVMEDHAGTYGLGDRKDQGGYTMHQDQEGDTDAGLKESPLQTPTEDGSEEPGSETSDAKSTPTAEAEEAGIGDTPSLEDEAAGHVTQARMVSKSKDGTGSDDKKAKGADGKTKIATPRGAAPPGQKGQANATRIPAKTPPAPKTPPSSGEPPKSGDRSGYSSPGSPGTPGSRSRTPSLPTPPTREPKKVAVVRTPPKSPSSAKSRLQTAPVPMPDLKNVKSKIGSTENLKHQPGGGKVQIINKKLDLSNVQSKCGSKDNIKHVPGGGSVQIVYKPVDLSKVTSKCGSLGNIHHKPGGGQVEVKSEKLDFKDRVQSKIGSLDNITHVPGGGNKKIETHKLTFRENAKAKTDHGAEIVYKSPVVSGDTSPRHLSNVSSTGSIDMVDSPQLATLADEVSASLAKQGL

B1: HJ8.5 (antibody, V domains shown)
VH: EVKVEESGGGLVQPGGSMKLSCVVSGFTFSNYWVNWVRQSPEKGLEWVAQIRLKSDNYATHYEESVKGRFTISRDDSKSSVYLQMNNLRAEDSGIYYCTNWEDYWGQGTTLTVSS
VL: DIVLTQSPASLAVSLGQRATISCRASQSVSTSRYSYIHWYQQKPGQPPKLLIKYASNLESGVPARFSGSGSGTDFTLNIHPLEEEDAATYYCHHSWEIPLTFGAGTKLELK
antibody concentration that significantly blocked uptake and seeding activity: 0.5 µg/mL | lowest antibody concentration that blocked seeding activity (titration against a fixed amount of P301S brain lysate): 0.25 µg/mL
